Measured values published in US20260184748A1 (University of Pennsylvania, published 2026).
Where no end group is shown, it is not given here.

Columns and labels:
Experiment in all cases: cell-based or functional assay
[1] = target: T1, HCRTR1 (UniProt O43613 1-425)
T1 sequence (looked up): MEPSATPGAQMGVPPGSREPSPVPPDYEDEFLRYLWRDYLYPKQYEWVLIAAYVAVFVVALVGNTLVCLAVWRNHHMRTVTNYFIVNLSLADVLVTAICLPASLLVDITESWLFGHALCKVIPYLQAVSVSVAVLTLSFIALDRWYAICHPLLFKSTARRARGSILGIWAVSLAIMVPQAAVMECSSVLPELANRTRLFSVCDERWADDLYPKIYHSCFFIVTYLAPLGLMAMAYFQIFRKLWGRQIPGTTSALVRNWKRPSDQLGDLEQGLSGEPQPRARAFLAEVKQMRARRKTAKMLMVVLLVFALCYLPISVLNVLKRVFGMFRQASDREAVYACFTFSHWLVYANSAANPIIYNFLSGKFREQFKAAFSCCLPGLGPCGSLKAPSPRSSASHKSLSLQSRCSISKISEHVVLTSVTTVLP

[2] = target: T2, HCRTR2 (UniProt O43614 1-444)
T2 sequence (looked up): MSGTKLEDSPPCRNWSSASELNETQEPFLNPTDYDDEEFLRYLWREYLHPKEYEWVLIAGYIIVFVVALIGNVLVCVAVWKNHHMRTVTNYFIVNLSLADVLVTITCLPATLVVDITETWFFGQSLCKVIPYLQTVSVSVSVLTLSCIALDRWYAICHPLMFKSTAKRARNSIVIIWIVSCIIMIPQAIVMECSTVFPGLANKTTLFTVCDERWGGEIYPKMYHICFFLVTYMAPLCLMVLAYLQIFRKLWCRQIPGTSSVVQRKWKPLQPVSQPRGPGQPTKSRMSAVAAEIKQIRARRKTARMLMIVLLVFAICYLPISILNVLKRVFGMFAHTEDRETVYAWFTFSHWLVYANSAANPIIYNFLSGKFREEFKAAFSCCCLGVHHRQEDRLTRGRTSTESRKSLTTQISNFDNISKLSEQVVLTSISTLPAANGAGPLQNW

[3] = target: T3, AGTR1 (UniProt P30556 1-359)
T3 sequence (looked up): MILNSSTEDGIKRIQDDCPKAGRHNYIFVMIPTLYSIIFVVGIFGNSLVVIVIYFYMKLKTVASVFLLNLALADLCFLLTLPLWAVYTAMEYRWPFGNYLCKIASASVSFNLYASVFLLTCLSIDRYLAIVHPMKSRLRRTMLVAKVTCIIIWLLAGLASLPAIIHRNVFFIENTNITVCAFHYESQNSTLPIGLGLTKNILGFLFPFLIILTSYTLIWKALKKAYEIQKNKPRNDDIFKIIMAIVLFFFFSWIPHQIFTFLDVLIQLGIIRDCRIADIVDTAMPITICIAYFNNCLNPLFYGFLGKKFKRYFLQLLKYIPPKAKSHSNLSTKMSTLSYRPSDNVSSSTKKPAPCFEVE

[4] = target: T4, GALR2 (UniProt O43603 1-387)
T4 sequence (looked up): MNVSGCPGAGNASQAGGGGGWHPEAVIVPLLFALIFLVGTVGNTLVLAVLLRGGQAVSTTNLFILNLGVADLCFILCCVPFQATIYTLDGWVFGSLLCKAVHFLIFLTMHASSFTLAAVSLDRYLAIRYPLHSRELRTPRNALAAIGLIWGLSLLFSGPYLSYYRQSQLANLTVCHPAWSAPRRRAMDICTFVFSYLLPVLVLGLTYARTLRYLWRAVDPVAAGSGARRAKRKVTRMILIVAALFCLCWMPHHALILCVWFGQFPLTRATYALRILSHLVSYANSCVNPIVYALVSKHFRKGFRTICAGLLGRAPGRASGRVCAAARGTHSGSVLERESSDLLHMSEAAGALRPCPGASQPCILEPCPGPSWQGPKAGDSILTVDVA

[5] = target: MC5R (UniProt P33032 1-325)
[6] = target: PTAFR (UniProt P25105 1-342)
[7] = target: T5, CXCR3 (UniProt P49682 1-368)
T5 sequence (looked up): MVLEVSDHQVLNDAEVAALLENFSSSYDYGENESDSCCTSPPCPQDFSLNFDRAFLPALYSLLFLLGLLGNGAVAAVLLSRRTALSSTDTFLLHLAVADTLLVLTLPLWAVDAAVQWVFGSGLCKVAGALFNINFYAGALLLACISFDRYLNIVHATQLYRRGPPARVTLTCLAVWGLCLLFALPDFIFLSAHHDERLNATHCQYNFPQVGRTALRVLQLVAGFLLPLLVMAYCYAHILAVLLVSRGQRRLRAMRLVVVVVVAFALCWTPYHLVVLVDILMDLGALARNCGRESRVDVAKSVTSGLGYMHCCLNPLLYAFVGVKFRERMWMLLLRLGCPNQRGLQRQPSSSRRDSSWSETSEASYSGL

[8] = target: GPR109B (UniProt P49019 1-387)
[9] = target: T6, CCR2 (UniProt P41597-2 1-360, limits assumed)
T6 sequence (looked up): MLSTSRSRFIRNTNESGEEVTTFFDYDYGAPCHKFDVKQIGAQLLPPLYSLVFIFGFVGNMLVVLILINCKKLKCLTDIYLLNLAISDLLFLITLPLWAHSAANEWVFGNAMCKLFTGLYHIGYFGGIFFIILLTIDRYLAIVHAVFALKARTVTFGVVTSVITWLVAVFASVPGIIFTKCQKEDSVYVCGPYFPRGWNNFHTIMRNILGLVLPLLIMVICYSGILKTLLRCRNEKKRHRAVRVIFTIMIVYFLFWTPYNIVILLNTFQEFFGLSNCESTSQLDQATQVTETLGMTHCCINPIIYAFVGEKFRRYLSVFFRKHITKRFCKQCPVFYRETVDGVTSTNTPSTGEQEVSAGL

[10] = target: TSHR(L) (UniProt P16473 21-764, limits assumed)
[11] = target: DRD3 (UniProt P35462 1-400)
Sequence of DRD3 (P35462 whole entry): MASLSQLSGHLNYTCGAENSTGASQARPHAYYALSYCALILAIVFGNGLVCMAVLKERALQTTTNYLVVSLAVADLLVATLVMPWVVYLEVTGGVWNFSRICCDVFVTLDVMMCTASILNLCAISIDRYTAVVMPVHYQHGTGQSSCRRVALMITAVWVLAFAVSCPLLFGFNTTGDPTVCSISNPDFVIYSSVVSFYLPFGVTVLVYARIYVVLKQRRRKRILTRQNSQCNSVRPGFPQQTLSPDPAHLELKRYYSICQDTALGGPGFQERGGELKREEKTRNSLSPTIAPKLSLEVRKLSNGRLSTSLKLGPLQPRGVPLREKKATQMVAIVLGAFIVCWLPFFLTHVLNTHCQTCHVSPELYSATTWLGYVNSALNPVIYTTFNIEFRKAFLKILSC

Sequence of PTAFR (P25105 whole entry): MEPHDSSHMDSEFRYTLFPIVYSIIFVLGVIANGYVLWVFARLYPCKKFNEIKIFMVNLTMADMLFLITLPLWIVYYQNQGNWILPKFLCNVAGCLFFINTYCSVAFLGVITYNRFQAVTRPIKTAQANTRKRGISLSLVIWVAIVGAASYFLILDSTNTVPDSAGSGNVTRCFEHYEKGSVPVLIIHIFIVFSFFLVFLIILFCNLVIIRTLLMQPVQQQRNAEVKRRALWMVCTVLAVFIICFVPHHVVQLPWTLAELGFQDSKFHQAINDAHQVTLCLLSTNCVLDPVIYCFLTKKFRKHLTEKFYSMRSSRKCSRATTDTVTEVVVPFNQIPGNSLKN
Sequence of GPR109B (P49019 whole entry): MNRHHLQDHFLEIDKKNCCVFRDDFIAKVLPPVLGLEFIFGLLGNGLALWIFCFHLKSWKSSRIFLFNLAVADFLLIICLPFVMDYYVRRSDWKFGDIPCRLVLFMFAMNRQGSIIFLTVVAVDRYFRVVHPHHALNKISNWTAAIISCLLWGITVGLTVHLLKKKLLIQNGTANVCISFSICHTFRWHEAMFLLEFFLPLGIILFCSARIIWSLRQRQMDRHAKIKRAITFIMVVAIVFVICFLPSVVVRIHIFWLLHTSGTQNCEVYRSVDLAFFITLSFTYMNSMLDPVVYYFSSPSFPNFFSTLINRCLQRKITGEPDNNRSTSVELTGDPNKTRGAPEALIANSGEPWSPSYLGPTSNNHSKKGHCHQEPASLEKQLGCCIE
Sequence of MC5R (P33032 whole entry): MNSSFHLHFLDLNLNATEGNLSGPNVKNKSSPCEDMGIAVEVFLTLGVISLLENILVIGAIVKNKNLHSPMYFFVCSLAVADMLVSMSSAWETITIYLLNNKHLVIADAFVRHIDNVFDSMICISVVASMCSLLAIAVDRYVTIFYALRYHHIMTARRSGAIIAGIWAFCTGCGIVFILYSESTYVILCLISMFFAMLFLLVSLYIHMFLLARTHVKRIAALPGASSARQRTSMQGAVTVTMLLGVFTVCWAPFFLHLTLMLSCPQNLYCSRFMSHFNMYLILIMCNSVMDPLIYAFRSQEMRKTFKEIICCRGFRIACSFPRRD

## QATVGDVNTDRPGLLDLK (also: synthesised on Rink amide resin, C-terminal amide not given here outright) [octadecaneuropeptide (ODN)]
[1]
  % Activity, arrestin, antagonist mode, 2.5 uM: -1.7%
[2]
  % Activity, arrestin, antagonist mode, 2.5 uM: -2.7%
[3]
  % Activity, arrestin, antagonist mode, 2.5 uM: -8.5%
[4]
  % Activity, arrestin, antagonist mode, 2.5 uM: -29.7%
[5]
  % Activity, arrestin, antagonist mode, 2.5 uM: 5.9%
[6]
  % Activity, arrestin, antagonist mode, 2.5 uM: -7.3%
[7]
  % Activity, arrestin, antagonist mode, 2.5 uM: -7.5%
[8]
  % Activity, arrestin, antagonist mode, 2.5 uM: -17%
[9]
  % Activity, arrestin, antagonist mode, 2.5 uM: -15.4%
[10]
  % Activity, arrestin, antagonist mode, 2.5 uM: -19.1%
[11]
  % Activity, arrestin, antagonist mode, 2.5 uM: -1%
